From the nanobody polyreactivity screen of Harvey et al. (2022)

assay: yeast display, Sf9 membrane polyspecificity reagent, FACS + sequencing; frameworks hold sequencing errors
Method in brief: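 A synthetic nanobody library was expressed on Saccharomyces cerevisiae BJ5465 by galactose induction for 36–48 hours. The library was stained for 1 hour at 4 °C with 10% biotinylated, detergent-solubilized Sf9 membrane reagent and enriched with streptavidin microbeads before FACS. Low and high (top ~1%) gates were set on anti-HA fluorescence for expression and streptavidin fluorescence for reagent binding, and each polyreactivity label reflects the gate of origin.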

Row | Sequence | polyreactivity (PSR sort gate)
1 | QVQLVESGGGLVQAGGSLRLSCAASGRILWGYAMGWYRQATGKERELVATITRGGSTNYADSVKGRFTISRDNAKNTFYLKMNRVKPEDTAFYDCAAGELYIVNYTYYFEMDYWGEGTQVTVSS | high polyreactivity
2 | QVQLVESGGGLVQAGGSLRLSCAASGRILWQYAMGWYRPAPGKERELVAAITSSGADTYYADSVKGRFTISRDNAKNTVYLQMNSLKPEDTAVYYCNADASAVVYKFGFGYWGQGTQVTVSS | low polyreactivity
3 | QVQLVESGGGLVQAGGSLRLSCAASGRILWSYAMGWYRQAPGKERELVAAITSGTRTNYADSVKGRFTISRDNAKNTVYLQMNSLKPEDTAVYYCAADRYWPAFYRTRGWDYYYWGQGTQVTVSS | high polyreactivity
4 | QVQLVESGGGLVQAGGSLRLSCAASGRILYCYTMGWYRQAPGKERELVAGITTRGGNTYYADSVKGRFTISRDNAKNSVYLQMNSLKPEDTAVYYCAARFSGPARMDYWGQGTQVTVSS | low polyreactivity
5 | QVQLVESGGGLVQAGGSLRLSCAASGRILYGNVMGWYRQAPGKERELVAAIDSSGATTYYADSVKGRITISRDNAKNTVYLQMNSLKPDDTAVYYCAAEVTSFSFGGDATEYYWGQGTQVTVSS | low polyreactivity
6 | QVQLVESGGGLVQAGGSLRLSCAASGRILYGYALGWYRQAPGKERELVAAISWSGTRTYDADSVQGRFTISRDNAKNTVYLQMNSLKPEDTAVYYCAARTHVPAEYDYWGQGTQVTVSS | high polyreactivity
7 | QVQLVESGGGLVQAGGSLRLSCAASGRILYIYAMGWYRQAPGKERELVAAIRSSGGSTYYADSVKGRFTISRDNAKNTVYFQMNSLKPEDTAVYYCAAPDFPKYYPTAYLQADEYWGQGTQVTVSS | high polyreactivity
8 | QVQLVESGGGLVQAGGSLRLSCAASGRILYKYSMGWYRQAPGKERELVAAINRSGGRTYYADSVKGRFTISRDNAKNTVYIQMNSLKPEDTAVYYCAARNPTSYGQFDYLGQGTQVTVSS | high polyreactivity
9 | QVQLVESGGGLVQAGGSLRLSCAASGRILYPYAMGWYRQAPGKERESVAAITFRGGNTYYADSVKGRFTISRDQAKNTVYLQMNSLKPEDTAVYYCAAPQRWTYAYDYWGQGTQVTVSS | high polyreactivity
10 | QVQLVESGGGLVQAGGSLRLSCAASGRILYWYAMGWYRQAPGKERELVAGIDWSGGSTYYADSVKGRFTISRDNAKNTVYLQMNSLKPEDTAVNYCNAVQNRGRGSHRGESTYYYWGQGTQVTVSS | low polyreactivity
11 | QVQLVESGGGLVQAGGSLRLSCAASGRISAYNAMGWYRQAPGKERELVAGISTRTGSTYYADSVKGRFTISRDNAKNTVYLQMNSLKPEDTAVYYCAAYFWGVYFFGMDYWGQGTQVTVSS | low polyreactivity
12 | QVQLVESGGGLVQAGGSLRLSCAASGRISESNDMGWYRPAPGKERELVAAISSSGGSTYYADSVKGRFTISRDNAKNTVYLQMNSLKPEDTAVDYCNAVYYRTVLKIGVYEYDYWGQGTQVTVSS | low polyreactivity
13 | QVQLVESGGGLVQAGGSLRLSCAASGRISESNDMGWYRQAPGKERELVAAISSSGGSTYYADSVKGRFTISRDNAKNTVYLQMNSLKPEDTAVYYCAAQTGYSYGITWQFTKYNYWGQGTQVTVSS | low polyreactivity
14 | QVQLVESGGGLVQAGGSLRLSCAASGRISFRYAMGWYRPAPGKERELVAAINRGGITNYADSVKGRFTISRDNAKNTVYLQMNSLKPEDTAVYYCAARWRGSGGFDYWGQGTQVTVSS | high polyreactivity
15 | QVQLVESGGGLVQAGGSLRLSCAASGRISFRYAMGWYRQAPGKERELVAAINRGGITNYADSVKGRFTISRDNAKNTVYLQMNSLKPEDTAVYYCAARYASPRYKSKIAYWGQGTQVSVSS | high polyreactivity
16 | QVQLVESGGGLVQAGGSLRLSCAASGRISFYYAMGWYRQAPGKERELVATISSSGGSTHYADSVKGRFTISRDNAKNTVYLQMNSLKPEDTAVYYCARDDSDRIWLEQSGYWGQGTQVTVSS | low polyreactivity
17 | QVQLVESGGGLVQAGGSLRLSCAASGRISGGYDMGWYRQAPGKERELVAAITNTGGITYYADSVKGRFTISRDNAKNTVYLQMNSLKPEDTAVYYCNAEYEISFYVLFDYWGQGTQVTVSS | low polyreactivity
18 | QVQLVESGGGLVQAGGSLRLSCAASGRISHYNAMGWYRQAPGKERELVAAISSRGGSTYYADSVKGRFTISRDNAKNTVYLQMNSLKPEDTAVYYCADTAGYWGQGTQVTVSS | high polyreactivity
19 | QVQLVESGGGLVQAGGSLRLSCAASGRISIKNAMGWYRQAPGKERELVAAIRWSADSTYYADSVKGRFTISRDNAKNTVYLQMNSLIPEDTAVYYCAATGRLRYYWGQGTQVTVSS | high polyreactivity
20 | QVQLVESGGGLVQAGGSLRLSCAASGRISKGYAMGWYRQAPGKERELVAAISWRTSSTYYADSVKGRFTISRDNAKNTVYLQMNSLKPEVTAVYYCAAETWLGSWRQVGMDYWGQGTQVTVSS | high polyreactivity
21 | QVQLVESGGGLVQAGGSLRLSCAASGRISKYNAMGWYRQAPGKERELVAAINQRGTSTYYADSVKGRFTISRDNEMNTVYLQMNSLKPEDTAVYYCATTGYRFYLMDYWGQGTQVTVSS | low polyreactivity

Row | Sequence | polyreactivity (PSR sort gate)
22 | QVQLVESGGGLVQAGGSLRLSCAASGRISLFNAMGWYRQAPGKERELVAAITYTGGSTYYADSVKGRFTISRDNAKNTVYLQMNSLKPVDTAVYYCAADPWTAKDDSWGQGTQVTVSS | high polyreactivity
23 | QVQLVESGGGLVQAGGSLRLSCAASGRISLYYTMGWYRQAPGKEREFVAAISSTGGSTYYADSVKGRFTISRDNAKNTVYLQMNSLKPEDTAVYYCAKAYHATSDYWGQGTQVTVSS | low polyreactivity
24 | QVQLVESGGGLVQAGGSLRLSCAASGRISPKNAMGWYRQAPGKERELVATIRKIGGRTYYADSVKGRFTISRDNAKYTVYLQMNSLKPEDTAVYYCATDFAPSYYPDRFDYWGQGTQVTVSS | low polyreactivity
25 | QVQLVESGGGLVQAGGSLRLSCAASGRISQGYAMGWYRQAPGKERELVAVISRSGGSTYYADSVKGRFTISRDNAKNTVYLQMNSVKPEDTAVYYCASRYYWRGYYWGQGTQVTVSS | high polyreactivity
26 | QVQLVESGGGLVQAGGSLRLSCAASGRISQIYARGWYRQAPGKERELVASISSSGSRTYYADSVKGRFTISRDHAKNTVYLQMNSLKPEDTAVYYCAATYLKVHGEYDYWGQGTQVTVSS | high polyreactivity
27 | QVQLVESGGGLVQAGGSLRLSCAASGRISRGYAMGWYRQAPGKERELVAAIDSDGDTNYADSVKGRFTISRDNAKNTVYLQMNSLKPEDTAVYYCNKDGAYKTAYKRWTLYDYWGQGTQVTVSS | low polyreactivity
28 | QVQLVESGGGLVQAGGSLRLSCAASGRISSLYAMGWYRQAPGKERELVAAISGTGGSAYYADSVKGRFTISRDNAKNTVYLQLNSLKPEDTAVYYCNAVRRWRTSQFDYWGQGTQVTVSS | low polyreactivity
29 | QVQLVESGGGLVQAGGSLRLSCAASGRISTRYTMGWYRQAPRKERELVAAISGNAGRTYYADSVKGRFTISRDNAKNTVYLEMNSLKPADTAVYYCARESGYRAYEIQFYYWGQGTQVTVSS | high polyreactivity
30 | QVQLVESGGGLVQAGGSLRLSCAASGRISVFNAMGWYRQAPGKERELVAAITSGGSTNYADSVKGRFTISRDNAKNTVYLQMNSLKPEDTAVYYSNADVYHSHEPHYDYWGQGTQVTVSS | low polyreactivity
31 | QVQLVESGGGLVQAGGSLRLSCAASGRISVRIYAMGWYRQAPGKERELVAIISRSGGSTYYADSVKGRFTISRDNAKNTVYLQMNSLKPEDTEVYYCNARWSFSYTVWVDSYWCLDDYWGQGTQVTVSS | high polyreactivity
32 | QVQLVESGGGLVQAGGSLRLSCAASGRISYANAMGWYRQAPGKERELVASITYSAGSTYADSVKGRFTISRDNAKYTVYLQMNSLKPEDSAVYYCNAYHVIYARESDYWGQCTQVTVSS | low polyreactivity
33 | QVQLVESGGGLVQAGGSLRLSCAASGRISYLYTMGWYRQAPGKERELVAAIRWRDGSTYYADSVKGRFTISRDNAKNTVYLQMNSLTPEDTAVYYCAATPVGFYWYDYWGQGTQVTVSS | low polyreactivity
34 | QVQLVESGGGLVQAGGSLRLSCAASGRISYNNAMGWYRQAPGKERELVAAITKNGGRTYYADSVKGRFTISRDNAKNTVYLQMNSLKPEDTAVYYCAVRSYYYGYDYWGQGTQVTVSS | high polyreactivity
35 | QVQLVESGGGLVQAGGSLRLSCAASGRISYSNAMGWYRQAPGKERELVAAITSSGGSTYYADSVKGRFTISRDNAKNTVYLQMNSLKPEDTAVYYCAAVAYALGFASKEDYWGQGTQVTVSS | high polyreactivity
36 | QVQLVESGGGLVQAGGSLRLSCAASGRIVANAMGWYRQAPGKERELVAAISWSGGRTFYADSVKGRFTISRDNAKNTVYLQMNSLKPEDSAVYYCNARGPVYARYDYCGQGTQVTVSS | low polyreactivity
37 | QVQLVESGGGLVQAGGSLRLSCAASGRIVGYYAMGWYRQAPGKERELVATITFGGGSTYYADTVKGRFTISRDIAKNTVYLQMNSLKPEDTAVYYCAAEIYPLGSLRLGPGEYDHWGQGTQVTVSS | low polyreactivity
38 | QVQLVESGGGLVQAGGSLRLSCAASGRIVRSYTMGWYRLEPGKERELVSDITSGTSTSYADSVKGRFTISRDNAKNTVYLQINSLKPEDTAVYYCNADVSNYFWNWPYQGMDYWGQGTQVTVSS | low polyreactivity
39 | QVQLVESGGGLVQAGGSLRLSCAASGRIVYIYAMGWYRQAPGKERELVAAISSGGTTNYADSVKGRFTISRDNAKNTVYLQMNSLKPEDTAVYYCAAYWRSRNRFYWGQGTQVTVSS | high polyreactivity
40 | QVQLVESGGGLVQAGGSLRLSCAASGRIYAMGWYRQAPGKERELVAAISRGGSTYYADSVKGRFTISRDNAKNTVYLQMNSLKPEDTAVYYCARRYASTGYDYWGQGTQVTVSS | high polyreactivity
41 | QVQLVESGGGLVQAGGSLRLSCAASGRIYGPNAMGWYRQAPGKERELVAAISTSGGSTYYADSVKGRFTISRDNAKNTVYLQMNSLKPEDTAVYYCNVVHRGSWYYFWGQGTQVTVSS | high polyreactivity
